No end group written: not given here. FAM = 5(6)-carboxyfluorescein
T1: mouse SIRPα expressed on J774A.1 macrophages (mouse, UniProt P97797 32-513)
T1 chain: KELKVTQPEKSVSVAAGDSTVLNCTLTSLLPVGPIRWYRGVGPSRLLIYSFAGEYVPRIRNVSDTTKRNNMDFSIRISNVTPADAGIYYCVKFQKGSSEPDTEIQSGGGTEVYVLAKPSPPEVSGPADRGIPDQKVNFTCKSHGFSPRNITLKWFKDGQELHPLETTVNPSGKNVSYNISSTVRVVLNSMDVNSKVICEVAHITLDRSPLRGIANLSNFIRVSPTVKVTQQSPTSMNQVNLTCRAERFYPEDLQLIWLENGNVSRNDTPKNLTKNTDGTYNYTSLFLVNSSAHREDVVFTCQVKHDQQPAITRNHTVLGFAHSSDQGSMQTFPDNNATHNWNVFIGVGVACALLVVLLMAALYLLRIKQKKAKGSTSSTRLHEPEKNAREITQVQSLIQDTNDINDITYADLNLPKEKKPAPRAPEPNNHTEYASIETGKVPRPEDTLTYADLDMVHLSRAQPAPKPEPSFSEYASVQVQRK


Columns and labels:
[1] = target: T2, human SIRPα expressed on cells (PMA-differentiated THP-1 macrophages; A549 cells) (human, UniProt P78324 31-504); test: fluorescence microscopy saturation binding; live THP-1 macrophages
[2] = target: T2, human SIRPα expressed on cells …; test: fluorescence microscopy saturation binding; live THP-1 macrophages, corrected by subtracting nS-X-FAM
[3] = target: T2, human SIRPα expressed on cells …; test: fluorescence microscopy saturation binding; fixed THP-1 macrophages
[4] = target: T1, mouse SIRPα expressed on J774A.1 …; test: fluorescence microscopy saturation binding; live J774A.1 macrophages

Row | Binder | Kd [1] [µM] | Kd [2] [µM] | Kd [3] [µM] | Kd [4] [µM]
1 | K(FAM)VTELFREG-NH2 [FAM-labeled nS-F] | 195 | 93 | – | –
2 | K(FAM)LETVEGTR-NH2 [FAM-labeled nS-X] | 916 | – | – | –

Stronger by Kd [1], values ahead:

Row | Kd [1] [µM] | Kd [2] [µM] | Kd [3] [µM] | Kd [4] [µM] | Binder
3 | 161 | 123 | 32 | 203 | K(FAM)VTELVREG-NH2 [FAM-labeled nS-V]
4 | 148 | 52 | – | 138 | K(FAM)VTELTREG-NH2 [FAM-labeled nS-wt]

From US20240158448A1 (published 2024)
